We go through three molecules from patent US7303752B2, “Hookworm vaccine” (The George Washington University, priority 2001, dated 2007).

“And” between values parts separate entries of the source, which are not always exact repeats. Identical values can stand only once.

In assay [1] the test system is recombinant Ac-CP-2. The assay can be described thus: Proteolytic activity of recombinant Ac-CP-2 against Z-Phe-Arg-AMC. Type of assay: biochemical, Ancylostoma caninum. As for the experimental part:
Purified, recombinant Ac-CP-2 was assessed for proteolytic activity using the fluorogenic peptidyl substrate Z-Phe-Arg-aminomethyl coumarin (AMC) (Bachem). The pH optimum of Ac-CP-2 was assessed using Z-Phe-Arg-AMC at different pH values according to published protocols. The cysteine protease inhibitor E64 was included in some assays at a final concentration of 5 μM. Recombinant Ac-CP-2 was treated with PNGase F and O-glycosidase, according to the manufacturer's instructions (Enzymatic CarboRelease kit, QA-Bio), under denaturing conditions to remove any N-linked and O-linked oligosaccharides.
Canine IgG was purified from sera of vaccinated dogs using protein A-agarose (Amersham Biosciences) as previously described. Purified IgG (10-500 ng) was incubated with 1.0 μg of recombinant Ac-CP-2 for 45 mins prior to assessing proteolytic activity as described above.

Assay [2] concerns A. caninum. The experiment in a line: Canine vaccine trial with Ac-TTR and SBAS2, L3 challenge: worm burden, blood loss, worm size. Type of assay: in vivo, dog. On the procedure:
E. coli derived antigens Ac-MTP-1 and Ac-TTR were tested in vaccine trials in dogs. Antigens were administered with adjuvant SBAS2. […] Subsequently the dogs were challenged by subcutaneous injection of L3 hookworm larvae.
Animals were also tested to ascertain whether vaccination with hookworm antigens protected against blood loss. […] Using the Mann-Whitney test, the differences in both hemoglobin (38B) concentration (P=0.036) and hematocrit (38A) concentration (P=0.009) between the TTR and adjuvant control groups were statistically significant.
Further, the differences in hemoglobin concentration translated to a statistically significant reduction in worm size. Data was collected using an imaging system based on scans of the worms recovered from a host. Worms were photographed with a CoolSnapPro digital camera (Media Cybernetics), and the images measured in ImagePro Software using a macro to determine worm length (in mm) compared between treatments. As shown in FIG. 39 there was a statistically significant reduction in worm size (between 1 and 2 mm) among the TTR vaccinated group relative to the adjuvant control group.

Assay [3] concerns anti-ASP-2 antibodies. The assay can be described thus: ELISA of canine IgG1, IgG2, IgE after Ac-ASP-2/AS03 vaccination (Example 12). The assay is classed as in vivo, dog. As for the experimental part:
This study was conducted and reported in compliance with the intent of the Good Laboratory Practice Regulations (F.R. Vol. 43, No. 247, pp. 60013-60025, Dec. 22, 1978 and subsequent amendments). The study was audited by Quality Assurance while in progress to assure compliance with GLP regulations, adherence to the protocol and standard operating procedures. The data and final report were audited by Quality Assurance to assure that the report accurately described study conduct and results. The vaccine trial was designed to test Ac-ASP-2 formulated with Adjuvant System 03 (AS03) 44 obtained from GlaxoSmithKline. The rationale for selecting AS03 as an adjuvants is discussed elsewhere 37. The ten purpose bred beagles were randomized into two arms: immunized with Ac-ASP-2 (SEQ ID NO: 20) or adjuvant only (control). To make six doses of Ac-ASP-2 (SEQ ID NO: 20) formulated with AS03, 600 μg of recombinant protein (0.3 ml of Ac-ASP-2 (SEQ ID NO: 20) at a concentration of 2 mg.ml^−1) was mixed with 1.2 ml of 20 mM Tris-HCl, 0.5 M NaCl, pH 7.9 and 1.5 ml of AS03; the contents of the tube were vortex mixed for 30 seconds then shaken at low speed for 10 minutes. […]
Beagles were immunized with formulated Ac-ASP-2 (SEQ ID NO: 20) as previously described^37. […] Each animal's specific antibody response was evaluated by indirect ELISA using serum taken prior to the infective challenge^37. […]
(ELISA stands for enzyme-linked immunosorbent assay.)

Assay [4] relates to A. caninum. The assay can be described thus: Canine vaccine trial with Ac-ASP-2, Ac-API, Ac-MEP-1, Ac-APR-1 in AS03, footpad challenge with 500 A. caninum L3. The assay is classed as in vivo, dog. On the procedure: The vaccine trial was designed to test Ac-API, Ac-ASP-2, Ac-MEP-1, Ac-APR-1 formulated with Adjuvant System 03 (AS03) obtained from GlaxoSmithKline (GSK). The rationale for selecting AS03 as an adjuvants is discussed elsewhere (Stoute et al, 1997). […] To make six doses of antigen formulated with AS03, […] of recombinant protein (0.3 ml of antigen at a concentration of 2 mg.ml^−1) was mixed with 1.2 ml of 20 mM Tris-HCl, 0.5 M NaCl, pH 7.9 and 1.5 ml of AS03; the contents of the tube were vortex mixed for 30 seconds then shaken at low speed for 10 minutes. Dogs were immunized with 100 g of formulated antigen in a final volume of 0.5 ml. ASO3 only control was prepared as described above, with PBS included instead of antigen. Formulation of GSK adjuvants were conducted according to the protocol provided by GSK. All injections were performed intramuscularly (IM). Test and control articles were prepared on the day of injection. All animals received 4 immunizations approximately 3 weeks apart.
A. caninum larvae were cultured from eggs collected in the feces of infected dogs. All hookworms in the infective challenge were approximately equal age (17±7 days post hatching). The species identity of the infective larvae were validated using PCR. All dogs were infected by the footpad method with the same dose of 500 L3 of A. caninum (Zhan et al, 2001). Larval challenge occurred on one of three consecutive days (at age 120+/−9 days). Fourteen-sixteen days after the final immunization, dogs were anesthetized using a combination of ketamine and xylazine (20 mg.kg^−1 and 10 mg.kg^−1 respectively), and 500 A. caninum L3 in a final volume of […] were applied to the footpad.

Assay [5] deals with antibody to recombinant proteins. The experiment in a line: Pre-challenge antibody titer ELISA, trial with Ac-ASP-2, Ac-API, Ac-MEP-1, Ac-APR-1 in AS03. The assay is classed as in vivo, dog. As for the experimental part: The vaccine trial was designed to test Ac-API, Ac-ASP-2, Ac-MEP-1, Ac-APR-1 formulated with Adjuvant System 03 (AS03) obtained from GlaxoSmithKline (GSK). The rationale for selecting AS03 as an adjuvants is discussed elsewhere (Stoute et al, 1997). The ten purpose bred beagles were randomized into five arms: immunized with the adjuvant-formulated recombinant proteins or adjuvant only (control). To make six doses of antigen formulated with AS03, […] of recombinant protein (0.3 ml of antigen at a concentration of 2 mg.ml^−1) was mixed with 1.2 ml of 20 mM Tris-HCl, 0.5 M NaCl, pH 7.9 and 1.5 ml of AS03; the contents of the tube were vortex mixed for 30 seconds then shaken at low speed for 10 minutes. Dogs were immunized with 100 g of formulated antigen in a final volume of 0.5 ml. ASO3 only control was prepared as described above, with PBS included instead of antigen. Formulation of GSK adjuvants were conducted according to the protocol provided by GSK. All injections were performed intramuscularly (IM). Test and control articles were prepared on the day of injection. All animals received 4 immunizations approximately 3 weeks apart.
Beagles were immunized with formulated Ac-ASP-2 as previously described (Loukas et al, 2004). The vaccines were administered IM three times beginning at age 62+/−4 days. Boosts were administered to the dogs at intervals of 21 days. Blood was drawn at least once every 21 days and serum was separated from cells by centrifugation. Each animal's specific antibody response was evaluated by indirect ELISA using serum taken prior to the infective challenge (Loukas et al, 2004). Recombinant Ac-ASP-2 was coated onto microtiter plates at a concentration of 5 g.ml^−1. Dog sera were titrated between 1:100 and 1:2×10^6 to determine endpoint titers. Anti-canine IgG1, IgG2 and IgE antibodies conjugated to horse-radish peroxidase (Bethyl Laboratories) were used at a dilution of 1:1,000.

For `CC(C)C[C@H](NC(=O)[C@H]1O[C@@H]1C(=O)O)C(=O)NCCCCN=C(N)N` [E64], in assay [1] (1.0 μg Ac-CP-2, Z-Phe-Arg-AMC, 50 ng pooled IgG or E64 5 μM, mean of triplicate), the “% reduction in proteolytic activity” value amounted to 100 ± 0%. Moreover, the “cleavage of the peptide substrate, in words” value in assay [1] (final concentration of 5 μM) is “completely ablated”.

B1: Ac-TTR-1: A. caninum transthyretin antigen, SEQ ID NO: 30; E. coli derived, given with SBAS2 (protein, listed as Ancylostoma caninum)
chain: MIQLFLLALVPMCISVREQSIAVKGRLLCGDQPAANVRVKLWEEDTGPDPDDLLDAGYTNSNGEFQLQGGTIETTPIDPVLKIYHDCNDVTGFLSVPKPGSRKVRFSLPDKYISDGMVPKKVMDIGVINLEVEFEKEGREFIVD
Molecule B1 came in with a reduced hookworm burden in assay [2] (one dog with high IgE and IgG1 antibody to TTR) of 6%. Moreover, in assay [2] (versus adjuvant control, hemoglobin P=0.036, hematocrit P=0.009), the “protection against blood loss (hemoglobin, hematocrit)” value is given as “significant protection against blood loss”.

B2: Ac-ASP-2: A. caninum secreted protein 2, SEQ ID NO: 20; recombinant from Sf9 insect cells, given with AS03 (protein, listed as Ancylostoma caninum)
chain: MLVLVPLLALLAVSVHGNSMRCGNNGMTDEARQKFLDVHNSYRSMVAKGQAKDAISGNAPKAAKMKKMIYDCNVESTAMQNAKKCVFAHSHRKGVGENIWMSTARQMDKAQAAQQASDGWFSELAKYGVGQENKLTTQLWNRGVMIGHYTQMVWQESYKLGCYVEWCSSMTYGVCQYSPQGNNMNSLTYEKGNPCTKDSDCGSNASCSAGEALCVVRG
In the case of B2, in assay [3] (immunized canines), the “IgG1 and IgG2 antibody titers to recombinant Ac-ASP-2, in words” value is reported as “strong”. In assay [3] (test canines), the “IgE titers to Ac-ASP-2, in words” value is “one log lower than the IgG1 and IgG2 titers”. Also, in assay [4] (5 dogs), the “worm burdens, Maximum” value is recorded as 226.00 and the “worm burdens, Minimum” value was determined as 89.00. Further, the “worm burdens, Mean” value in assay [4] (5 dogs, ASO3 control 203.8000) is 166.0000. Further, the “worm burdens, Median” value in assay [4] (5 dogs, ASO3 control 215.0000) was determined as 174.0000. For the same molecule, in assay [4] (group average, AS03 control 5), the “worm burden, Colon, Male, Average” value was found to be 4. In addition, the “worm burden, Colon, Female, Average” value in assay [4] (group average, AS03 control 9) turned out to be 5. In assay [4] (group average, AS03 control 95), the “worm burden, Intestine, Female, Average” value was determined as 81. Also, in assay [4] (group average, AS03 control 96), the “worm burden, Intestine, Male, Average” value stood at 76. Also, the “worm burden, Total, Average” value in assay [4] (group average, AS03 control 204) amounted to 166. Further, in assay [4] (individual dogs), the “worm burden, Colon, Female” value is 5 and 4 and 3 and 8 and 6; the “worm burden, Colon, Male” value was 5 and 4 and 1 (2×) and 9; the “worm burden, Intestine, Female” value was 87 and 101 and 115 and 72 and 28; the “worm burden, Intestine, Male” value was 62 and 72 and 107 and 85 and 54. For the same molecule, in assay [4] (individual dogs), the “worm burden, Total” value was 160 and 181 and 226 and 174 and 89. In addition, in assay [5] (geometric mean of group), the “Pre-challenge antibody titer, IgE, GEOMEAN” value is 100; the “Pre-challenge antibody titer, IgG1, GEOMEAN” value is reported as 10,837; the “Pre-challenge antibody titer, IgG2, GEOMEAN” value is given as 20,950. In assay [5] (immunized canines), the “IgG1 and IgG2 antibody titers to recombinant Ac-ASP-2, in words” value is on record as “strong”. Also, in assay [5] (individual dogs), the “Pre-challenge antibody titer, IgE” value was 100; the “Pre-challenge antibody titer, IgG1” value was 13,500 (4×) and 4,500; the “Pre-challenge antibody titer, IgG2” value was 40,500 (2×) and 13,500 (3×). Besides, the “IgE titers to Ac-ASP-2, in words” value in assay [5] (test canines) was “one log lower than the IgG1 and IgG2 titers”.
